Experimental data: publication PMC4940141 (Nature, 2016)
Blank lines part the entries; values can stand above or below the binder they belong to.

Tests used:
Assay in all cases: cryo-EM structure
TBP = TBP (human, UniProt P20226 1-339)
RPB2 = RPB2 (human (endogenous in HeLa), UniProt P30876 1-1174)
RPB1 = RPB1 (human (endogenous in HeLa), UniProt P24928 1-1970)

Chain of TBP (P20226 whole entry): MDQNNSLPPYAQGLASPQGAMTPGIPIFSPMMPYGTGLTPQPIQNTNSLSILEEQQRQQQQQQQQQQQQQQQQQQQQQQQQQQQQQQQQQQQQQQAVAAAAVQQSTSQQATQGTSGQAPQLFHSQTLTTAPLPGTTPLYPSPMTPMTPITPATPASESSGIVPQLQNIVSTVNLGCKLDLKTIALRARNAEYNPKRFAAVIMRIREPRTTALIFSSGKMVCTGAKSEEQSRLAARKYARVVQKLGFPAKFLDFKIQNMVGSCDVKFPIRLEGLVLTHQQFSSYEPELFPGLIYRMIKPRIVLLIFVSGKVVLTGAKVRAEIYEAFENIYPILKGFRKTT

binding result (TBP): binds
binding result (RPB2): binds
B1: RAP30 (natural protein, human)
chain: MAERGELDLTGAKQNTGVWLVKVPKYLSQQWAKASGRGEVGKLRIAKTQGRTEVSFTLNEDLANIHDIGGKPASVSAPREHPFVLQSVGGQTLTVFTESSSDKLSLEGIVVQRAECRPAASENYMRLKRLQIEESSKPVRLSQQLDKVVTTNYKPVANHQYNIEYERKKKEDGKRARADKQHVLDMLFSAFEKHQYYNLKDLVDITKQPVVYLKEILKEIGVQNVKGIHKNTWELKPEYRHYQGEEKSD

binding result (RPB1): binds
B2: TFIIEα (natural protein)
chain: MADPDVLTEVPAALKRLAKYVIRGFYGIEHALALDILIRNSCVKEEDMLELLKFDRKQLRSVLNNLKGDKFIKCRMRVETAADGKTTRHNYYFINYRTLVNVVKYKLDHMRRRIETDERDSTNRASFKCPVCSSTFTDLEANQLFDPMTGTFRCTFCHTEVEEDESAMPKKDARTLLARFNEQIEPIYALLRETEDVNLAYEILEPEPTEIPALKQSKDHAATTAGAASLAGGHHREAWATKGPSYEDLYTQNVVINMDDQEDLHRASLEGKSAKERPIWLRESTVQGAYGSEDMKEGGIDMDAFQEREEGHAGPDDNEEVMRALLIHEKKTSSAMAGSVGAAAPVTAANGSDSESETSESDDDSPPRPAAVAVHKREEDEEEDDEFEEVADDPIVMVAGRPFSYSEVSQRPELVAQMTPEEKEAYIAMGQRMFEDLFE
